In this series the test system is ATP. The series is described as follows: switch fluorescence ratio, 500 uM ATP over buffer (Cy3 cluster intensity, sum of 5 cycles each) (fold (ratio)); higher = stronger signal-on switching upon ATP binding; sequences stand for … in TCGTCGGCAGCGTCAGATGTGTATAAGAGACAGTTTTTTTTTTTTTTTTTTTTTTTTT…TC. The note with it: aptamer strand: ATP DNA aptamer (quencher-CACCTGGGGGAGTATTGCGGAGGAAGG + anchor), 100 nM annealed; ATP concentration: 500 uM. The procedure, abridged:
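Between each of five buffer/ATP cycles, the flow-cell was stripped with NaOH and re-annealed. Each cycle imaged Cy3-labelled switching-strand clusters, annealed to 100 nM quencher-labelled ATP aptamer on a modified Illumina MiSeq flow-cell, first in selection buffer and then after 15 min with 500 uM ATP at 22 °C. The fluorescence ratio is summed target-cycle over summed buffer-cycle Cy3 intensity per cluster, averaged per switch-domain sequence, with clusters outside 100-1000 RFU excluded.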

± gives the standard deviation of the averaged measurements.
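Also: ATP exposure 15 min at 22 °C before imaging.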

As to TGTGGGGTCG, the switch fluorescence ratio is 1.01 ± 0.058.
Under TGTGGGTGTT stands 0.961 ± 0.011; under TGTGGGTTAT, 0.976 ± 0.011; under TGTGGTAAGT, 1.01 ± 0.062.
Under TGTGGTAGCG stands 1.01 ± 0.018; under TGTGGTTGTT, 1.02 ± 0.041.
As for TGTGGTTTCC, the switch fluorescence ratio came to 1.01 ± 0.022.
On to TGTGGTTTGA, for which the switch fluorescence ratio worked out at 1.01 ± 0.043.
Under TGTGTACCGG stands 1.01 ± 0.028; under TGTGTCTAGT, 0.974 ± 0.0013; under TGTGTGAATG, 1.03 ± 0.037.
For the sequence TGTGTGAGGG, the switch fluorescence ratio came to 1.036 ± 0.0086.
On to TGTGTGTAAG, for which the switch fluorescence ratio is 1.001 ± 0.0067.
With TGTGTGTGTG, the switch fluorescence ratio is 0.974 ± 0.017.
In the case of TGTGTTACTT it was 0.9988 ± 0.001.
Regarding TGTGTTAGG, the switch fluorescence ratio is 1.01 ± 0.03.
TGTGTTAGTT: the switch fluorescence ratio was 0.991 ± 0.024.
For the sequence TGTGTTCCTC, the switch fluorescence ratio amounted to 1.08 ± 0.013.
Under TGTGTTGGTC stands 1.036 ± 0.0032; under TGTGTTGTGG, 0.997 ± 0.028; under TGTGTTTCGT, 1.007 ± 0.0084.
On to TGTGTTTGGG, for which the switch fluorescence ratio came out at 0.987 ± 0.038.
Take TGTGTTTGGT: the switch fluorescence ratio was determined as 0.979 ± 0.021.
Consider TGTTAATAGC, for which the switch fluorescence ratio was 1.03 ± 0.032.
For TGTTACGGCA, the switch fluorescence ratio was 1.08 ± 0.041.
As to TGTTAGAGGC, the switch fluorescence ratio worked out at 1.03 ± 0.1.
As for TGTTAGGCAA, the switch fluorescence ratio worked out at 1.06 ± 0.034.
Under TGTTAGGTAA stands 1.22 ± 0.32.
For TGTTAGTGTT, the switch fluorescence ratio stood at 1.03 ± 0.029.
With TGTTAGTTCT, the switch fluorescence ratio amounted to 1.02 ± 0.0089.
On to TGTTATAATG, for which the switch fluorescence ratio turned out to be 1.03 ± 0.068.
On to TGTTATGTGC, for which the switch fluorescence ratio came out at 0.968 ± 0.036.
TGTTATTTTT: the switch fluorescence ratio is 1 ± 0.041.
In the case of TGTTCAAAAC, the switch fluorescence ratio turned out to be 1 ± 0.086.
For the sequence TGTTCAGGTG, the switch fluorescence ratio came to 3.38 ± 0.15.
On to TGTTCCGCTT, for which the switch fluorescence ratio turned out to be 2.16 ± 0.17.
On to TGTTCCGGGT, for which the switch fluorescence ratio is 0.999 ± 0.048.
In the case of TGTTCGGGTT, the switch fluorescence ratio turned out to be 0.99 ± 0.015.
Under TGTTCTAGG stands 1.01 ± 0.015; under TGTTCTATAT, 1.01 ± 0.05; under TGTTCTCGGA, 1.006 ± 0.0097.
Under TGTTCTGCGA stands 1.43 ± 0.54; under TGTTGAAGGT, 1.02 ± 0.029.
As for TGTTGAATGT, the switch fluorescence ratio was found to be 1.02 ± 0.03.
As to TGTTGAGGGG, the switch fluorescence ratio turned out to be 0.964 ± 0.041.
As to TGTTGAGTGT, the switch fluorescence ratio worked out at 0.962 ± 0.017.
As to TGTTGATAGG, the switch fluorescence ratio was determined as 0.982 ± 0.02.
Turning to TGTTGATCCT, the switch fluorescence ratio worked out at 1.03 ± 0.027.
Consider TGTTGATTGT, for which the switch fluorescence ratio was found to be 0.983 ± 0.013.
Under TGTTGCCACG stands 1 ± 0.0062; under TGTTGCCGTT, 0.886 ± 0.057; under TGTTGCCTGG, 0.978 ± 0.023.
In the case of TGTTGCTTAA it was 0.993 ± 0.019; in that of TGTTGGGACG, 1.1 ± 0.039.
Under TGTTGGGACT stands 1.17 ± 0.24.
In the case of TGTTGGGCAG, the switch fluorescence ratio came out at 0.9634 ± 0.0089.
In the case of TGTTGGGGG it was 0.994 ± 0.062.
In the case of TGTTGGTGC it was 1.04 ± 0.013.
In the case of TGTTGTAAAG it was 0.985 ± 0.03; in that of TGTTGTAGAC, 0.961 ± 0.0098.
Take TGTTGTATTT: the switch fluorescence ratio worked out at 1.01 ± 0.022.
Take TGTTGTCAGG: the switch fluorescence ratio stood at 0.99 ± 0.025.
With TGTTGTCTTG, the switch fluorescence ratio came to 0.98616 ± 6.6e-05.
For the sequence TGTTGTCTTT, the switch fluorescence ratio worked out at 1.03 ± 0.12.
On to TGTTGTTACA, for which the switch fluorescence ratio worked out at 0.99 ± 0.029.
Consider TGTTGTTGAA, for which the switch fluorescence ratio was determined as 1.01 ± 0.042.
As to TGTTGTTGGT, the switch fluorescence ratio amounted to 1.017 ± 0.00011.
On to TGTTGTTGTT, for which the switch fluorescence ratio stood at 1.01 ± 0.086.
As to TGTTGTTTAA, the switch fluorescence ratio was found to be 1.04 ± 0.086.
As for TGTTTAAGAG, the switch fluorescence ratio came out at 1 ± 0.023.
In the case of TGTTTAGGTT, the switch fluorescence ratio stood at 1.01 ± 0.071.
In the case of TGTTTATCGG it was 0.998 ± 0.041; in that of TGTTTCTCGC, 1.05 ± 0.037; in that of TGTTTCTTTT, 1.01 ± 0.024.
For the sequence TGTTTGAAGG, the switch fluorescence ratio amounted to 0.995 ± 0.017.
TGTTTGACAT: the switch fluorescence ratio came to 0.98 ± 0.02.
Regarding TGTTTGATGG, the switch fluorescence ratio worked out at 1.01 ± 0.038.
TGTTTGGCTG: the switch fluorescence ratio is 1.054 ± 0.0084.
Take TGTTTGGGCG: the switch fluorescence ratio was 1.03 ± 0.077.
Take TGTTTGGGGG: the switch fluorescence ratio is 1.01 ± 0.036.
With TGTTTGGTGC, the switch fluorescence ratio came out at 1.54 ± 0.8.
For TGTTTGGTTA, the switch fluorescence ratio is 0.995 ± 0.017.
On to TGTTTGGTTT, for which the switch fluorescence ratio was 1.01 ± 0.013.
Regarding TGTTTGTAT, the switch fluorescence ratio is 0.9851 ± 0.0015.
Take TGTTTGTCTA: the switch fluorescence ratio is 1.01 ± 0.011.
In the case of TGTTTGTTGG it was 0.9887 ± 0.009.
Turning to TGTTTGTTTC, the switch fluorescence ratio came out at 0.973 ± 0.033.
As for TGTTTTAGAA, the switch fluorescence ratio turned out to be 1.01 ± 0.012.
For TGTTTTAGGC, the switch fluorescence ratio was 0.977 ± 0.02.
Take TGTTTTAGGG: the switch fluorescence ratio was found to be 0.993 ± 0.035.
Turning to TGTTTTAGTT, the switch fluorescence ratio worked out at 1.01 ± 0.045.
As for TGTTTTATGG, the switch fluorescence ratio amounted to 0.9871 ± 0.008.
In the case of TGTTTTATGT it was 0.989 ± 0.032; in that of TGTTTTCGGT, 0.9899 ± 0.0097; in that of TGTTTTGAGT, 1.01 ± 0.013.
As for TGTTTTGATG, the switch fluorescence ratio is 1.04 ± 0.078.
Turning to TGTTTTGGTG, the switch fluorescence ratio turned out to be 1.01 ± 0.027.
As to TGTTTTTAGT, the switch fluorescence ratio came to 0.9945 ± 0.0039.
Under TGTTTTTGTT stands 1.01 ± 0.058; under TGTTTTTTAT, 1.02 ± 0.047; under TGTTTTTTTA, 0.979 ± 0.024.
Turning to TGTTTTTTTC, the switch fluorescence ratio was 1.06 ± 0.04.
Consider TGTTTTTTTT, for which the switch fluorescence ratio came out at 0.999 ± 0.029.
On to TTAAAAAGTA, for which the switch fluorescence ratio was determined as 1.03 ± 0.02.
Turning to TTAAAACCTT, the switch fluorescence ratio was found to be 1.56 ± 0.46.
With TTAAAACTCA, the switch fluorescence ratio stood at 1.04 ± 0.018.
For the sequence TTAAAAGTAT, the switch fluorescence ratio was 1.01 ± 0.043.
For the sequence TTAAAATAGA, the switch fluorescence ratio was found to be 1.07 ± 0.1.
On to TTAAAATTAA, for which the switch fluorescence ratio worked out at 0.975 ± 0.021.
With TTAAACCCAC, the switch fluorescence ratio worked out at 1.35 ± 0.023.
Consider TTAAACGTAG, for which the switch fluorescence ratio was 1 ± 0.045.
Turning to TTAAACTCGG, the switch fluorescence ratio turned out to be 0.998 ± 0.053.
As for TTAAAGAGCT, the switch fluorescence ratio was found to be 1.014 ± 0.0028.
TTAAAGGGGG: the switch fluorescence ratio turned out to be 1.02 ± 0.086.
Under TTAAAGGTAA stands 1.018 ± 0.0094; under TTAAAGGTAT, 1.11 ± 0.063; under TTAAAGTCCC, 0.993 ± 0.033.
Take TTAAAGTCGG: the switch fluorescence ratio stood at 1 ± 0.024.
For the sequence TTAAAGTGAA, the switch fluorescence ratio is 0.988 ± 0.024.
For TTAAATAAAA, the switch fluorescence ratio is 0.999 ± 0.028.

These data come from the supplement of paper PMC10126150.
